From patent US20130005944A1 (ANCHOR THERAPEUTICS, published 2013)
Where no end group is shown, it is not given here. [ ]: non-standard residue; d: D form. The star is where a group is joined. Ala(3-Me-diazirin-3-yl) = CC1(C[C@H](N)C(=O)O)N=N1; Hexadecanesulfonyl = CCCCCCCCCCCCCCCCS(=O)(=O)*; 2Nal = N[C@@H](Cc1ccc2ccccc2c1)C(=O)O; Palmitoyl = CCCCCCCCCCCCCCCC(=O)*; Hyp = O=C(O)[C@@H]1C[C@@H](O)CN1; Cit = NC(=O)NCCC[C@H](N)C(=O)O; code z = not defined here; hSer = N[C@@H](CCO)C(=O)O; Nle = CCCC[C@H](N)C(=O)O; Pra = C#CC[C@H](N)C(=O)O; Dap = NC[C@H](N)C(=O)O

Target: CXCR4 receptor (human, UniProt P61073 1-352)
Sequence (P61073 whole entry): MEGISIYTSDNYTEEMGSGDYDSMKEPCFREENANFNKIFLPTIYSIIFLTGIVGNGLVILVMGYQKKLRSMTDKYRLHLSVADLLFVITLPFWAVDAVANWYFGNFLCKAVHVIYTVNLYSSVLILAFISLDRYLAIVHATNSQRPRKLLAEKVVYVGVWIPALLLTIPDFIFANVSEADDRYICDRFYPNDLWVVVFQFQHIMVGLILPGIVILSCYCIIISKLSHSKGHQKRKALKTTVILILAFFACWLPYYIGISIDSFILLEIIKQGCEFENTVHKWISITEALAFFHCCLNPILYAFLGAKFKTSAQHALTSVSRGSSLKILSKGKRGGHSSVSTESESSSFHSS
Assay: cell-based or functional assay

Pal-MGYQKKLRSMTDK[2Nal]RL [Compound No. 16 (Pal-MGYQKKLRSMTDK(Nal)RL)]
% Intrinsic Activity, calcium flux, CEM cells (Flexstation): 34.4%
EC50 (nM), calcium flux, CEM cells, agonist mode (Flexstation): 3020 nM

Palmitoyl-GGYQKKHRSATDKYRL (not fully specified) [Compound No. 38 (Pal-GGYQKKHRSATDKYRL)]
% Intrinsic Activity, calcium flux, CEM cells (Flexstation): 86.8%
EC50 (nM), calcium flux, CEM cells, agonist mode (Flexstation): 27 nM

Pal-GGYQKKLR[dP]ATDKFRL [Compound No. 29 (Pal-GGYQKKLRpATDKFRL)]
% Intrinsic Activity, calcium flux, CEM cells (Flexstation): 88.9%
EC50 (nM), calcium flux, CEM cells, agonist mode (Flexstation): 26.3 nM

Pal-GGYQKK[dP]R[dP]ATDKYRL [Compound No. 28 (Pal-GGYQKKpRpATDKYRL)]
% Intrinsic Activity, calcium flux, CEM cells (Flexstation): 107%
EC50 (nM), calcium flux, CEM cells, agonist mode (Flexstation): 25 nM

Pal-GYQKKLRS[Nle]TDKYRI [Compound No. 20 (Pal-GYQKKLRS(Nle)TDKYRI)]
% Intrinsic Activity, calcium flux, CEM cells (Flexstation): 62.5%
EC50 (nM), calcium flux, CEM cells, agonist mode (Flexstation): 232 nM

Hexadecanesulfonyl-GGYQKKLR[dP]HTDKYRL-NH2 (also: table lists the lipid as 'Pal') [Compound No. 46 (CH3(CH2)15SO2-GGYQKKLRpHTDKYRL-amide)]
EC50 (nM), calcium flux, CEM cells, agonist mode (FLIPR): 12.5 nM

Palmitoyl-MGYQKKLPRSMTDKYRL (not fully specified) [Compound No. 7 (Pal-MGYQKKLPRSMTDKYRL)]
% Intrinsic Activity, calcium flux, CEM cells (Flexstation): 100%
EC50 (nM), calcium flux, CEM cells, agonist mode (Flexstation): 153 nM

Pal-[Pra]GYQKKLRSMTDKYRL [Compound No. 24 (Pal-(Pra)GYQKKLRSMTDKYRL)]
% Intrinsic Activity, calcium flux, CEM cells (Flexstation): 76.6%
EC50 (nM), calcium flux, CEM cells, agonist mode (Flexstation): 267 nM

Pal-GGYQKKLR[dP][dP]HTDKYRL [Compound No. 32 (Pal-GGYQKKLRppHTDKYRL)]
% Intrinsic Activity, calcium flux, CEM cells (Flexstation): 91.1%
EC50 (nM), calcium flux, CEM cells, agonist mode (Flexstation): 73.2 nM

{3‑(dodecyloxy)propanoate}-GGYQKKLRSATDKYRL (not fully specified (C-terminus)) [Compound No. 31 (3-(dodecyloxy)propanoate-GGYQKKLRSATDKYRL)]
% Intrinsic Activity, calcium flux, CEM cells (Flexstation): 84.2%
EC50 (nM), calcium flux, CEM cells, agonist mode (Flexstation): 154 nM

Pal-GGYQKKLR[dP]ATDKYRL [Compound No. 27 (Pal-GGYQKKLRpATDKYRL)]
% Intrinsic Activity, calcium flux, CEM cells (Flexstation): 111%
EC50 (nM), calcium flux, CEM cells, agonist mode (Flexstation): 85.9 nM

Pal-MGYQKKLRSMTDKYR[Nle] [Compound No. 12 (Pal-MGYQKKLRSMTDKYR(Nle))]
% Intrinsic Activity, calcium flux, CEM cells (Flexstation): 73.2%
EC50 (nM), calcium flux, CEM cells, agonist mode (Flexstation): 249 nM

Pal-MGYQKKLRS[dP]MTDKYRL [Compound No. 9 (Pal-MGYQKKLRSpMTDKYRL)]
% Intrinsic Activity, calcium flux, CEM cells (Flexstation): 77.9%
EC50 (nM), calcium flux, CEM cells, agonist mode (Flexstation): 123 nM

Palmitoyl-MGYQKKLRPSMTDKYRL (not fully specified) [Compound No. 8 (Pal-MGYQKKLRPSMTDKYRL)]
% Intrinsic Activity, calcium flux, CEM cells (Flexstation): 88%
EC50 (nM), calcium flux, CEM cells, agonist mode (Flexstation): 169 nM

Pal-[code z]GYQKKLRS[code z]TDKYRL (not fully specified; printed as Pal-zGYQKKLRSzTDKYRL; reading uncertain) [Compound No. 23 (Pal-zGYQKKLRSzTDKYRL)]
% Intrinsic Activity, calcium flux, CEM cells (Flexstation): 87.2%
EC50 (nM), calcium flux, CEM cells, agonist mode (Flexstation): 83 nM

Palmitoyl-GGYQKKLRTATDKYRL (not fully specified) [Compound No. 41 (Pal-GGYQKKLRTATDKYRL)]
% Intrinsic Activity, calcium flux, CEM cells (Flexstation): 149%
EC50 (nM), calcium flux, CEM cells, agonist mode (Flexstation): 106 nM

Palmitoyl-GGYQKKLRSATDKYRLH (not fully specified) [Compound No. 40 (Pal-GGYQKKLRSATDKYRLH)]
% Intrinsic Activity, calcium flux, CEM cells (Flexstation): 78.7%
EC50 (nM), calcium flux, CEM cells, agonist mode (Flexstation): 297 nM

Palmitoyl-GGYQKKLRSATDKYRL (not fully specified (C-terminus)) [Compound No. 25 (Pal-GGYQKKLRSATDKYRL)]
% Intrinsic Activity, calcium flux, CEM cells (Flexstation): 89.4%
EC50 (nM), calcium flux, CEM cells, agonist mode (Flexstation): 36.8 nM

Pal-GGYQKKLR[Hyp]HTDKYRL [Compound No. 35 (Pal-GGYQKKLR(Hyp)HTDKYRL)]
% Intrinsic Activity, calcium flux, CEM cells (Flexstation): 89.4%
EC50 (nM), calcium flux, CEM cells, agonist mode (Flexstation): 45 nM

Pal-GGYQKKLR[dP][Dap]TDKYRL [Compound No. 34 (Pal-GGYQKKLRp(Dpr)TDKYRL)]
% Intrinsic Activity, calcium flux, CEM cells (Flexstation): 103%
EC50 (nM), calcium flux, CEM cells, agonist mode (Flexstation): 89 nM

Palmitoyl-MGYQKPLRSMTDKYRL [Compound No. 6 (Pal-MGYQKPLRSMTDKYRL)]
% Intrinsic Activity, calcium flux, CEM cells (Flexstation): 90.2%
EC50 (nM), calcium flux, CEM cells, agonist mode (Flexstation): 161 nM

Pal-GGYQKKLR[dP]HTDKYRL [Compound No. 26 (Pal-GGYQKKLRpHTDKYRL)]
% Intrinsic Activity, calcium flux, CEM cells (Flexstation): 91.2%
EC50 (nM), calcium flux, CEM cells, agonist mode (Flexstation): 55.2 nM

Pal-GGYQKK[Ala(3-Me-diazirin-3-yl)]RSATDKYRL [Compound No. 37 (Pal-GGYQKK(photoLeu)RSATDKYRL)]
% Intrinsic Activity, calcium flux, CEM cells (Flexstation): 85.7%
EC50 (nM), calcium flux, CEM cells, agonist mode (Flexstation): 71.2 nM

Palmitoyl-MGYQKKLRSMTDKYKL (not fully specified) [Compound No. 13 (Pal-MGYQKKLRSMTDKYKL)]
% Intrinsic Activity, calcium flux, CEM cells (Flexstation): 61.4%
EC50 (nM), calcium flux, CEM cells, agonist mode (Flexstation): 194 nM

Palmitoyl-MGYQKKLRSMTDKYRV (not fully specified) [Compound No. 11 (Pal-MGYQKKLRSMTDKYRV)]
% Intrinsic Activity, calcium flux, CEM cells (Flexstation): 61.7%
EC50 (nM), calcium flux, CEM cells, agonist mode (Flexstation): 1320 nM

Palmitoyl-CGYQKKLRSATDKYRL (not fully specified) [Compound No. 30 (Pal-CGYQKKLRSATDKYRL)]
% Intrinsic Activity, calcium flux, CEM cells (Flexstation): 95.3%
EC50 (nM), calcium flux, CEM cells, agonist mode (Flexstation): 144 nM

Pal-MGYQKKLRS[Nle]TDKYRL [Compound No. 17 (Pal-MGYQKKLRS(Nle)TDKYRL)]
% Intrinsic Activity, calcium flux, CEM cells (Flexstation): 62.7%
EC50 (nM), calcium flux, CEM cells, agonist mode (Flexstation): 208 nM

Palmitoyl-MGYQKKLRSMTDKFRL (not fully specified) [Compound No. 15 (Pal-MGYQKKLRSMTDKFRL)]
% Intrinsic Activity, calcium flux, CEM cells (Flexstation): 81.5%
EC50 (nM), calcium flux, CEM cells, agonist mode (Flexstation): 135 nM

Palmitoyl-MGYQKKLRSHTDKYRL (not fully specified) [Compound No. 18 (Pal-MGYQKKLRSHTDKYRL)]
% Intrinsic Activity, calcium flux, CEM cells (Flexstation): 93.4%
EC50 (nM), calcium flux, CEM cells, agonist mode (Flexstation): 110 nM

Pal-[hSer]GYQKKLRS[hSer]TDKYRL [Compound No. 22 (Pal-xGYQKKLRSxTDKYRL)]
% Intrinsic Activity, calcium flux, CEM cells (Flexstation): 77.7%
EC50 (nM), calcium flux, CEM cells, agonist mode (Flexstation): 125 nM

Pal-GGYQKKLR[dP][Hyp]TDKYRL [Compound No. 36 (Pal-GGYQKKLRp(Hyp)TDKYRL)]
% Intrinsic Activity, calcium flux, CEM cells (Flexstation): 55.2%
EC50 (nM), calcium flux, CEM cells, agonist mode (Flexstation): 603 nM

Pal-GGYQKKLR[dP]WTDKYRL [Compound No. 33 (Pal-GGYQKKLRpWTDKYRL)]
% Intrinsic Activity, calcium flux, CEM cells (Flexstation): 93%
EC50 (nM), calcium flux, CEM cells, agonist mode (Flexstation): 109 nM

Pal-MGYQKKLRSMTDKY[Cit]L [Compound No. 14 (Pal-MGYQKKLRSMTDKY(Cit)L)]
% Intrinsic Activity, calcium flux, CEM cells (Flexstation): 3.61%
EC50 (nM), calcium flux, CEM cells, agonist mode (Flexstation): 10000 nM

Palmitoyl-MGYQKKLRSGTDKYRL (not fully specified) [Compound No. 19 (Pal-MGYQKKLRSGTDKYRL)]
% Intrinsic Activity, calcium flux, CEM cells (Flexstation): 101%
EC50 (nM), calcium flux, CEM cells, agonist mode (Flexstation): 370 nM
